From US20110009319A1

Columns and labels:
TGF-b1 = TGF-b1 (UniProt P01137); assay: cell-based or functional assay
activin-A = activin-A (UniProt P08476); assay: cell-based or functional assay
Sequence of activin-A (P08476 311-426): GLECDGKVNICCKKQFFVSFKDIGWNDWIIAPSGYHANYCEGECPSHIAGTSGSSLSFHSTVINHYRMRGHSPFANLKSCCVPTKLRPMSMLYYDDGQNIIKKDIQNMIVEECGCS

Sequence of TGF-b1 (P01137 279-390 limits assumed): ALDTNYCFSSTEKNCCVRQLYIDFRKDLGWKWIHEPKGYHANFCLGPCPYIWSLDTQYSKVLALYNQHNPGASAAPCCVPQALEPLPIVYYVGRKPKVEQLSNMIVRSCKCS

## wild type mouse Cripto (from UniProt P51865 18-134) (receptor)
TGF-b1
  3TP-lux luciferase expression induced by TGF-b1 in HepG2 cells (fold reduction): 4
  FAST2/A3-luciferase induction by 100 pM TGF-b1 in 293T cells (fold reduction): 3
activin-A
  3TP-lux luciferase expression induced by activin-A in HepG2 cells (fold reduction): 4
